According to the array DNA melting data of Ke et al.:

Assay: melting temperature; melt of duplexes
Conditions: sodium 0.0675 M; strand 1 µM

Substance	Tm
CGACGTGCGGAATGTGCTG+CAGCACATGGTGCACGTCG ((((((((...((((((((+))))))))...))))))))	52.2 °C
CGACGTGCGGAATGTGCTG+CAGCACATGTAGCACGTCG ((((((((...((((((((+))))))))...))))))))	60.4 °C
CGACGTGCGGAATGTGCTG+CAGCACATGTTGCACGTCG ((((((((...((((((((+))))))))...))))))))	52.8 °C
CGACGTGCGGAATGTGCTG+CAGCACATTACGCACGTCG (((((((((.(((((((((+))))))))).)))))))))	62 °C
CGACGTGCGGAATGTGCTG+CAGCACATTATGCACGTCG ((((((((..(((((((((+)))))))))..))))))))	55.4 °C
CGACGTGCGGAATGTGCTG+CAGCACATTCCGCACGTCG (((((((((((((((((((+)))))))))))))))))))	66.6 °C
CGACGTGCGGAATGTGCTG+CAGCACATTCGGCACGTCG ((((((((.((((((((((+)))))))))).))))))))	59.9 °C
CGACGTGCGGAATGTGCTG+CAGCACATTCTGCACGTCG ((((((((.((((((((((+)))))))))).))))))))	61.1 °C
CGACGTGCGGAATGTGCTG+CAGCACATTGAGCACGTCG ((((((((..(((((((((+)))))))))..))))))))	56.2 °C
CGACGTGCGGAATGTGCTG+CAGCACATTGTGCACGTCG ((((((((..(((((((((+)))))))))..))))))))	53.9 °C
CGACGTGCGGAATGTGCTG+CAGCACATTTGGCACGTCG ((((((((..(((((((((+)))))))))..))))))))	54.6 °C
CGACGTGCGGAATGTGCTG+CAGCACATTTTGCACGTCG ((((((((..(((((((((+)))))))))..))))))))	55.2 °C
CGACGTGCGGCATGTGCTG+CAGCACATAAAGCACGTCG ((((((((...((((((((+))))))))...))))))))	56 °C
CGACGTGCGGCATGTGCTG+CAGCACATACCGCACGTCG ((((((((((.((((((((+)))))))).))))))))))	60 °C
CGACGTGCGGCATGTGCTG+CAGCACATAGAGCACGTCG ((((((((...((((((((+))))))))...))))))))	56.4 °C
CGACGTGCGGCATGTGCTG+CAGCACATAGGGCACGTCG ((((((((...((((((((+))))))))...))))))))	49.5 °C
CGACGTGCGGCATGTGCTG+CAGCACATAGTGCACGTCG ((((((((...((((((((+))))))))...))))))))	45.9 °C
CGACGTGCGGCATGTGCTG+CAGCACATATAGCACGTCG ((((((((...((((((((+))))))))...))))))))	54.7 °C
CGACGTGCGGCATGTGCTG+CAGCACATATCGCACGTCG (((((((((..((((((((+))))))))..)))))))))	54.7 °C
CGACGTGCGGCATGTGCTG+CAGCACATCAGGCACGTCG ((((((((...((((((((+))))))))...))))))))	51 °C
CGACGTGCGGCATGTGCTG+CAGCACATCCAGCACGTCG ((((((((.(.((((((((+)))))))).).))))))))	53.9 °C
CGACGTGCGGCATGTGCTG+CAGCACATCCCGCACGTCG ((((((((((.((((((((+)))))))).))))))))))	58.3 °C
CGACGTGCGGCATGTGCTG+CAGCACATCGAGCACGTCG ((((((((...((((((((+))))))))...))))))))	53.6 °C
CGACGTGCGGCATGTGCTG+CAGCACATCGGGCACGTCG ((((((((...((((((((+))))))))...))))))))	49.6 °C
CGACGTGCGGCATGTGCTG+CAGCACATCTCGCACGTCG (((((((((..((((((((+))))))))..)))))))))	53.4 °C
CGACGTGCGGCATGTGCTG+CAGCACATGACGCACGTCG (((((((((.(((((((((+))))))))).)))))))))	64 °C

Substance	Tm
CGACGTGCGGCATGTGCTG+CAGCACATGCCGCACGTCG (((((((((((((((((((+)))))))))))))))))))	68.9 °C
CGACGTGCGGCATGTGCTG+CAGCACATGCGGCACGTCG ((((((((.((((((((((+)))))))))).))))))))	61.7 °C
CGACGTGCGGCATGTGCTG+CAGCACATGGCGCACGTCG (((((((((.(((((((((+))))))))).)))))))))	65.9 °C
CGACGTGCGGCATGTGCTG+CAGCACATGTGGCACGTCG ((((((((..(((((((((+)))))))))..))))))))	56.8 °C
CGACGTGCGGCATGTGCTG+CAGCACATTATGCACGTCG ((((((((...((((((((+))))))))...))))))))	49 °C
CGACGTGCGGCATGTGCTG+CAGCACATTTAGCACGTCG ((((((((...((((((((+))))))))...))))))))	52 °C
CGACGTGCGGGATGTGCTG+CAGCACATAAAGCACGTCG ((((((((...((((((((+))))))))...))))))))	53.6 °C
CGACGTGCGGGATGTGCTG+CAGCACATACCGCACGTCG ((((((((((.((((((((+)))))))).))))))))))	63.1 °C
CGACGTGCGGGATGTGCTG+CAGCACATACGGCACGTCG ((((((((.(.((((((((+)))))))).).))))))))	55.6 °C
CGACGTGCGGGATGTGCTG+CAGCACATAGCGCACGTCG (((((((((..((((((((+))))))))..)))))))))	57.4 °C
CGACGTGCGGGATGTGCTG+CAGCACATAGGGCACGTCG ((((((((...((((((((+))))))))...))))))))	50.1 °C
CGACGTGCGGGATGTGCTG+CAGCACATAGTGCACGTCG ((((((((...((((((((+))))))))...))))))))	47.9 °C
CGACGTGCGGGATGTGCTG+CAGCACATATAGCACGTCG ((((((((...((((((((+))))))))...))))))))	52.8 °C
CGACGTGCGGGATGTGCTG+CAGCACATCACGCACGTCG (((((((((.(((((((((+))))))))).)))))))))	63.8 °C
CGACGTGCGGGATGTGCTG+CAGCACATCCCGCACGTCG (((((((((((((((((((+)))))))))))))))))))	67.7 °C
CGACGTGCGGGATGTGCTG+CAGCACATCCGGCACGTCG ((((((((.((((((((((+)))))))))).))))))))	61.6 °C
CGACGTGCGGGATGTGCTG+CAGCACATCCTGCACGTCG ((((((((.((((((((((+)))))))))).))))))))	62.6 °C
CGACGTGCGGGATGTGCTG+CAGCACATCGAGCACGTCG ((((((((..(((((((((+)))))))))..))))))))	58.1 °C
CGACGTGCGGGATGTGCTG+CAGCACATCGCGCACGTCG (((((((((.(((((((((+))))))))).)))))))))	63.7 °C
CGACGTGCGGGATGTGCTG+CAGCACATCTAGCACGTCG ((((((((..(((((((((+)))))))))..))))))))	57.8 °C
CGACGTGCGGGATGTGCTG+CAGCACATCTGGCACGTCG ((((((((..(((((((((+)))))))))..))))))))	57.1 °C
CGACGTGCGGGATGTGCTG+CAGCACATGACGCACGTCG (((((((((..((((((((+))))))))..)))))))))	57.6 °C
CGACGTGCGGGATGTGCTG+CAGCACATGAGGCACGTCG ((((((((...((((((((+))))))))...))))))))	51.9 °C
CGACGTGCGGGATGTGCTG+CAGCACATGCCGCACGTCG ((((((((((.((((((((+)))))))).))))))))))	63.7 °C
CGACGTGCGGGATGTGCTG+CAGCACATGCGGCACGTCG ((((((((.(.((((((((+)))))))).).))))))))	55.4 °C
CGACGTGCGGGATGTGCTG+CAGCACATGCTGCACGTCG ((((((((.(.((((((((+)))))))).).))))))))	56.9 °C
